Patent US20030144205A1

Biological target: SV40 large T antigen (pGADT7-SV40 large T antigen) (SV40) (UniProt P03070)
Assay: cell-based or functional assay

Chain of SV40 large T antigen (pGADT7-SV40 large T antigen) (SV40) (P03070 86-708 limits assumed): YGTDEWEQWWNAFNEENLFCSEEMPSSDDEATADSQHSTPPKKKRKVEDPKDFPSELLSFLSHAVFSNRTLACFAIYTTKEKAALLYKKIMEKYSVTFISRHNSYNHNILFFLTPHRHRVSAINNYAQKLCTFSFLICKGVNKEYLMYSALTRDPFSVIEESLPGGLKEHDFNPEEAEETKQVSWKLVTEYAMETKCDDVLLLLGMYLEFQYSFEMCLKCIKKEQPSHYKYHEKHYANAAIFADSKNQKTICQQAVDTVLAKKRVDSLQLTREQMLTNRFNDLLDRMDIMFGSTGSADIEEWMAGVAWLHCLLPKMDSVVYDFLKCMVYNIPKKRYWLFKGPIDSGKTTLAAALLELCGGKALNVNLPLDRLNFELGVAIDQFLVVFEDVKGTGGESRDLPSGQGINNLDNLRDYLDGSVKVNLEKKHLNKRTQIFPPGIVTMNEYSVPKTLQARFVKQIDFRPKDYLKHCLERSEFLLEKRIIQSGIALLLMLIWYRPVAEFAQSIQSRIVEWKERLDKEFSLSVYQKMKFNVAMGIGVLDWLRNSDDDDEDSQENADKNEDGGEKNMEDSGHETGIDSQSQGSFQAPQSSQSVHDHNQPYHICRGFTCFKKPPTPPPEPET

Substance: murine p53 (pGBKT7-murine p53) (from UniProt P02340 72-390)
- fold increase in fluorescence, an indication of yeast growth in selection media (Fluorescence(t40)/Fluorescence(t0)): > 5 fold
